Data published in paper PMC13577073, “Cryo-EM structure of the glycosylated protein CgeA in the crust of Bacillus subtilis endospores” (The Journal of Microbiology, 2025).

What was measured:
[1] = molecular target: the molecule itself; assay: SEC-MALS; Superdex 200 Increase 10/300 GL; 20 mM Tris-HCl (pH 8.0), 150 mM NaCl; DAWN HELIOS II
[2] = molecular target: the molecule itself; assay: SEC; wild type and A42C/D97C mutant compared; Superdex 200 column calibrated with reference proteins

B1: CgeA protein from Bacillus subtilis, wild type (natural protein, B. subtilis, UniProt P42089 1-133, looked up)
chain: MSSENAQLKKDLIKAVLSPLFPTATEGGENMDSNLKALLDAAIDQKVDESETVTAESILDPSLPARWIFARITPGTTISIVTDSGDMIGPVVFVAFDQVHGIVFVTQESSVTPAGQATTLIDVDKVESVTFFS
notes: CgeA, spore crust protein of B. subtilis; synthesized cgeA gene subcloned into NcoI/XhoI of pProEx-Hta; also called CgeA (WT); wild-type CgeA; source: E. coli BL21 (DE3), purified (Ni-NTA, TEV cleavage, HiTrap Q, Superdex 200); not shown: His6, N-terminal, cleaved
[1]
  stoichiometry N: 6

B2: CgeA A42C/D97C variant (natural protein, B. subtilis, UniProt P42089 1-133, looked up)
chain: MSSENAQLKKDLIKAVLSPLFPTATEGGENMDSNLKALLDACIDQKVDESETVTAESILDPSLPARWIFARITPGTTISIVTDSGDMIGPVVFVAFCQVHGIVFVTQESSVTPAGQATTLIDVDKVESVTFFS
notes: CgeA of B. subtilis with two cysteine mutations, made from pProEx-Hta-CgeA (WT) by QuikChange; residues 62-109 and 115-133 are modelled in the cryo-EM structure; The cysteines were designed to form a disulfide bond, which could not be seen unambiguously in the map; also called CgeA A42C/D97C mutant; CgeA mutant; source: E. coli BL21 (DE3), purified (Ni-NTA, TEV cleavage, HiTrap Q, Superdex 200); …
[2]
  stoichiometry N: 6
